According to patent publication US20220204643A1 (published 2022):
Blank lines part the entries; values can stand above or below the binder they belong to.

What was measured:
[1] = target: T1, Egf like and emi domain containing 1, pseudogene (human, UniProt Q0D2K5 1-195)
T1 construct: HuProt array protein; pseudogene product; also called EGFEM1P
T1 sequence: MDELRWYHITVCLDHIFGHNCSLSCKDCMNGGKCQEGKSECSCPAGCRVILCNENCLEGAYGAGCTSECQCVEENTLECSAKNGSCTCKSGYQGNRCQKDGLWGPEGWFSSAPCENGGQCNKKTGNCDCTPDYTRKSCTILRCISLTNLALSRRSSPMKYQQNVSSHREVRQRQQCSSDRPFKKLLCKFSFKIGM

[2] = target: T2, geminin DNA replication inhibitor, transcript variant 1 (human, UniProt O75496 1-209)
T2 construct: HuProt array protein, full-length recombinant from yeast; also called GMNN
T2 sequence: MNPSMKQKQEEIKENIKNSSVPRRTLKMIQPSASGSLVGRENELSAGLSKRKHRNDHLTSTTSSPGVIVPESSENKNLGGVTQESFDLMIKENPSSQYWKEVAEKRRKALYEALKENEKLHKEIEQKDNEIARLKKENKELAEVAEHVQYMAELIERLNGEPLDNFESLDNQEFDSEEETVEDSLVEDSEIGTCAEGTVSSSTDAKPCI

DEAD-box helicase 18 = target: T3, DEAD-box helicase 18 (human, UniProt Q9NVP1 1-670)
T3 construct: HuProt array protein, full-length recombinant from yeast; also called DDX18
T3 sequence: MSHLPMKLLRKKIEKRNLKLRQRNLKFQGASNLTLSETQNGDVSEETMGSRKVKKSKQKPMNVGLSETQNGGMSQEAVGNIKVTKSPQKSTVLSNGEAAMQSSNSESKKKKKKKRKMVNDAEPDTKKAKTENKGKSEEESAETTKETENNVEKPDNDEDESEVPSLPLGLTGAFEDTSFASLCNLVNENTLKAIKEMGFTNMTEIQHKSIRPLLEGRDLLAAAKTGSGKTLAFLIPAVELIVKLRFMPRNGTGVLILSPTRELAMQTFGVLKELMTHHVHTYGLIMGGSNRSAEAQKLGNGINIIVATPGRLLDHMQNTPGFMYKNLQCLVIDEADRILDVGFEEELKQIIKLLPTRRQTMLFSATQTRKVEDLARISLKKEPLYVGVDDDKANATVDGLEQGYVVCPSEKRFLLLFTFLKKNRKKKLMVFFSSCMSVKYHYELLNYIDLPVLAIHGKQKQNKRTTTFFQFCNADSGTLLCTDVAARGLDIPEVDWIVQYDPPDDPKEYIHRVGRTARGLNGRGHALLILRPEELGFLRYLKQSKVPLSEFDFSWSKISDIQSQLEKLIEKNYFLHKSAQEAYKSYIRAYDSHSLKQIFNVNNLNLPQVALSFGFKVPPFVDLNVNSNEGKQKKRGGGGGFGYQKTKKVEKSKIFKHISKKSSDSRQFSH

[3] = target: T4, syntaxin 1A, transcript variant 1 (human, UniProt Q16623 1-288)
T4 construct: HuProt array protein, full-length recombinant from yeast; also called STX1A
T4 sequence (Q16623 whole entry, change not shown): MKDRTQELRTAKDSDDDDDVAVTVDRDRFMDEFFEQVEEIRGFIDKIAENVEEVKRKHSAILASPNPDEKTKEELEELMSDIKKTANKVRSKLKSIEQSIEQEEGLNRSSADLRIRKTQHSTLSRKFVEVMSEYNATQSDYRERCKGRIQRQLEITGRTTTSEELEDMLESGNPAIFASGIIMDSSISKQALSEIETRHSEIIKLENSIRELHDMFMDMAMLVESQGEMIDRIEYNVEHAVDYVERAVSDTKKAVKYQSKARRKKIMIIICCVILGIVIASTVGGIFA

[4] = target: T5, FA complementation group G (human, UniProt O15287 1-622)
T5 construct: HuProt array protein, full-length recombinant from yeast; also called FANCG
T5 sequence: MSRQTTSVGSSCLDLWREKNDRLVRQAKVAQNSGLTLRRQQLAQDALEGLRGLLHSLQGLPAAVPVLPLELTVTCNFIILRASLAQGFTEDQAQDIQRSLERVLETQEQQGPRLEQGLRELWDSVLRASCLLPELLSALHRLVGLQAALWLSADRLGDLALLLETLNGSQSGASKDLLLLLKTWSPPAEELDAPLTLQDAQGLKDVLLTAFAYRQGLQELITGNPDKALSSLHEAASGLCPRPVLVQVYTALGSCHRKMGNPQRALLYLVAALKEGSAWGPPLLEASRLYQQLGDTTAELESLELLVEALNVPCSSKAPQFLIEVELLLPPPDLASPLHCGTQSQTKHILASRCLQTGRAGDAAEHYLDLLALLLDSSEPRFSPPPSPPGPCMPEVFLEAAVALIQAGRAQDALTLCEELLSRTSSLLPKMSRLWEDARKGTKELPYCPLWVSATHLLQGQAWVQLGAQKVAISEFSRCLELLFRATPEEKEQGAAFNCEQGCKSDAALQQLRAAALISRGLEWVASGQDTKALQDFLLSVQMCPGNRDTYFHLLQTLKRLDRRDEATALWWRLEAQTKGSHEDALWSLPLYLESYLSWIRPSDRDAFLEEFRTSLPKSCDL

[5] = target: T6, charged multivesicular body protein 4B (human, UniProt Q9H444 2-224)
T6 construct: HuProt array protein, full-length recombinant from yeast; also called CHMP4B
T6 sequence: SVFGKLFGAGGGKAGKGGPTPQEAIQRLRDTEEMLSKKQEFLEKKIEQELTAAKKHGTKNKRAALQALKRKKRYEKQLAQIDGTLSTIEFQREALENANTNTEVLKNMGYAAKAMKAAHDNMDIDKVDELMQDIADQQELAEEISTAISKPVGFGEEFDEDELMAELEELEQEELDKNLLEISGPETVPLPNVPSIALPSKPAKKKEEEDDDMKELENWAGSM

[6] = target: T7, endosome associated trafficking regulator 1, transcript variant 2 (human, UniProt Q96C92 59-435)
T7 construct: HuProt array protein, full-length recombinant from yeast; also called SDCCAG3
T7 chain: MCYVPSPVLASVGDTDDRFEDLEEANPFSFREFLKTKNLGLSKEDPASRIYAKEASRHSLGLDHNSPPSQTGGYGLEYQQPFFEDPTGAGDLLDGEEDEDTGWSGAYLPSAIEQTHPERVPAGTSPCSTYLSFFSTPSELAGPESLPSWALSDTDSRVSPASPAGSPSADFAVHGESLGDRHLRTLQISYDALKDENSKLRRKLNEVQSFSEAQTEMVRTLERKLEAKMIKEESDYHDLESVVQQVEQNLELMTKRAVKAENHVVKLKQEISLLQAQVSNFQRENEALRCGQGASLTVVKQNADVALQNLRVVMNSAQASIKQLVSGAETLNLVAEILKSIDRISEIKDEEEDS

zinc finger protein 8 = target: T8, zinc finger protein 8 (human, UniProt P17098 1-575)
T8 construct: HuProt array protein, full-length recombinant from yeast; also called ZNF8
T8 sequence (P17098 whole entry): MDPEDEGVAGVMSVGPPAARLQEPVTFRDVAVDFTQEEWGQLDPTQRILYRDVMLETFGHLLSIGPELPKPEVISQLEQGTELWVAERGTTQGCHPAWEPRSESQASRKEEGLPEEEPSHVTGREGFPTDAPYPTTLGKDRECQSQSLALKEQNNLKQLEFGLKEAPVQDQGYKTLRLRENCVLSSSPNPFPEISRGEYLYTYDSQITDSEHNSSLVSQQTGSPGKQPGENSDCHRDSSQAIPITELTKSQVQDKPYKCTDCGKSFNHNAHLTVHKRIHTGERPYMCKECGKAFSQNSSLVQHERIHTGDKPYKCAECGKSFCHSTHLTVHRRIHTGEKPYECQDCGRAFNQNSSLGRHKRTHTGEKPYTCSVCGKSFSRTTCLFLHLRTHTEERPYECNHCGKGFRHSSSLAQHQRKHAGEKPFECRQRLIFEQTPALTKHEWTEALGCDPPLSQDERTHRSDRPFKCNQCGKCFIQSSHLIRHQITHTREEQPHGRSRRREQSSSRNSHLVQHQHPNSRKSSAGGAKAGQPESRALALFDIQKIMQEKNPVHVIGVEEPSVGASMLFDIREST

[7] = target: T9, SATB homeobox 2, transcript variant 2 (human, UniProt Q9UPW6 1-733)
T9 construct: HuProt array protein, full-length recombinant from yeast; also called SATB2
T9 sequence: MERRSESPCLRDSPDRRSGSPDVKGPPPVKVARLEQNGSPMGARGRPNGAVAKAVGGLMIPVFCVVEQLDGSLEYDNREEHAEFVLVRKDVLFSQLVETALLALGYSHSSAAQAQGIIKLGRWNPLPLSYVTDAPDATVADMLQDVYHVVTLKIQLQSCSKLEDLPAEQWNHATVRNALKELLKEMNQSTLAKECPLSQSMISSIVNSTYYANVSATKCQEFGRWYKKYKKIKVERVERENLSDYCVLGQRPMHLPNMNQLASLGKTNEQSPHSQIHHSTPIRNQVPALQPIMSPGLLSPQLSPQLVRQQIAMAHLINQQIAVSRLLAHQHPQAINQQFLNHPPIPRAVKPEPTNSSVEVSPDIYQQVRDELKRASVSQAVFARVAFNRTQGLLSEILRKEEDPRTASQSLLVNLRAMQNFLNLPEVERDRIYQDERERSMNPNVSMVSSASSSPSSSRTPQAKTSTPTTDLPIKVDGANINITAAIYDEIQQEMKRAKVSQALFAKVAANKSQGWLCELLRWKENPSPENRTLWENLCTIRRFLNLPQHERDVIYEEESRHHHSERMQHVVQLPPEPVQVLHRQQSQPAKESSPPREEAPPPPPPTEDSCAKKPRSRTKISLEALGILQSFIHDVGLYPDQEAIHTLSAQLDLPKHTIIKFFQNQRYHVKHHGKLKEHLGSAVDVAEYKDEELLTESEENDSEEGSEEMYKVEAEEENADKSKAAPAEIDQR

[8] = target: T10, ganglioside induced differentiation associated protein 1, transcript variant 2 (human, UniProt Q8TB36 69-358)
T10 construct: HuProt array protein, full-length recombinant from yeast; also called GDAP1
T10 sequence: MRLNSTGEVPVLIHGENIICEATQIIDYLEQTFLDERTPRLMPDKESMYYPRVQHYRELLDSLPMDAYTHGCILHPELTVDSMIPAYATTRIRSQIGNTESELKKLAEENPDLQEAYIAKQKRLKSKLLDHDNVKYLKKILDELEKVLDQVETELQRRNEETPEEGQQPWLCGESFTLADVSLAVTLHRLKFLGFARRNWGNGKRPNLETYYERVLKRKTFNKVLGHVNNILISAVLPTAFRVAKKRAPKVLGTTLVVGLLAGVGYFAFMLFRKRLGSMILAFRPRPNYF

[9] = target: T11, X-linked inhibitor of apoptosis, transcript variant 2 (human, UniProt P98170 1-497)
T11 construct: HuProt array protein, full-length recombinant from yeast; also called XIAP
T11 sequence (P98170 whole entry, change not shown): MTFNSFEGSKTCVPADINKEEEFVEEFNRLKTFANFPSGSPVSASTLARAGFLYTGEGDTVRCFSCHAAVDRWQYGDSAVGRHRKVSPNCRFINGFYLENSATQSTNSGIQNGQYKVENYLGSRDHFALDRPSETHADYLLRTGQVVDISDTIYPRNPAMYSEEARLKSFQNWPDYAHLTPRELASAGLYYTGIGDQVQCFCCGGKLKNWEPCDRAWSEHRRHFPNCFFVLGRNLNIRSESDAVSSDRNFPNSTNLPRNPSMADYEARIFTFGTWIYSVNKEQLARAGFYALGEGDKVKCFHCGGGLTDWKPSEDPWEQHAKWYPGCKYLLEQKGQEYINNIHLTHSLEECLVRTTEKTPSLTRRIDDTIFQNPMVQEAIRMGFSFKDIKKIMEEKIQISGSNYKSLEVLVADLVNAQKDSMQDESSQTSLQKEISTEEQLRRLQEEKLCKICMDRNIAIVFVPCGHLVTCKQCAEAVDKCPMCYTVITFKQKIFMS

B1: TBRE1036 (antibody, V domains shown)
VH: QVQLVESGGGVVQPGRSLRLSCAASGFTFSSYAMHWVRQAPGKGLEWVAVISYDGSNKYYADSLKGRFTISRDNSKDTLYLQVNSLRPEDTAVYYCARVNIAAAGTLDYWGQGTLVTVSS
VL: EIVLTQSPGTLSLSPGERATLSCRASQSVSSRYLAWYQQKPGQAPRLLIHGASSRATGIPDRFSGSGSGTDFTLTISRLEPEDFAVYYCQQYGSAWTFGQGTKVEIKR
notes: detected with anti-human IgG Fc
binding result [1]: binds

B2: TBRE1027 (antibody, V domains shown)
VH: EVQLLESGGGLVQPGGSLRLSCAASGFTFSSYAMSWVRQAPGKGLEWVSTISGSGHSTYYADSVKGRFTISRDNSKNTLYLQMNSLRAEDTAVYYCAKSTLGGGFDFWGQGTLVTVSS
VL: DIQMTQSPFSLSASVGDRVTITCRASQSISSYLNWYQQKPGKAPKLLIYAASSLQSGVPSRFSGSGSGTDFTLTISSLQPEDFATYYCHQSYSTSLTFGGGTKVEIKR
notes: as for B1
binding result [2]: binds | binding result (DEAD-box helicase 18): binds | binding result [3]: binds

B3: TBRE1024 (antibody, V domains shown)
VH: PVQLQESGPGLVKPSETLSLTCTVSGGSISSDNYYWSWLRQHPGKGLEWIGYIYFSVTTYYNPSLKSRVTISLDTSKNQFSLKLSSVTAADTAVYYCASGYVSFDLWGQGTLVTVSS
VL: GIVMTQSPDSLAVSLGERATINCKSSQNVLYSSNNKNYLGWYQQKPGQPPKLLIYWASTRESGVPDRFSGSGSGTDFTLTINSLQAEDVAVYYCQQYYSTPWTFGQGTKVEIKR
notes: as for B1
binding result [4]: binds

Further lines, results first:

binding result [5]: binds | binding result [6]: binds
B4: TBRE1034 (antibody, V domains shown)
VH: QVQLVESGGGLVEPGGSLRLSCAASGFTFSDYYMSWIRQAPGKRLEWISHMSSGGNRRHYADSVRGRFTISRDNAKNSLYLQMNSMRADDTAVYYCARDKRSGMTSDRRIDYWGQGTRVTVSS
VL: DIQMTQSPSSLSASVGDRITITCRASQSVGTYLSWFQQKPGKAPKLLIYAASSLQSGVPSRFSGSGSGTDFTLTISSLQPEDFATYFCQQSYSVPPWTFGQGTKVEIKR
notes: as for B1

binding result (zinc finger protein 8): binds | binding result [7]: binds | binding result [8]: binds
B5: TBRE1017 (antibody, V domains shown)
VH: QVQLVQSGAEVKKPGASVKVSCKASGYNFRDYYMHWVRQAPGQGLEWMGWINPNSGGTISAQNFQGRVTMTRDTSISTAYMEVNSLRSDDTAVYYCAVGMVTDGFEIWGQGTLVTVSS
VL: PYELTQPPSVSVSPGQTARITCSGDALPNENAFWYQQKPGQAPVLVIYEDIKRPSGIPERFSGSSSGTTVTLTISGVQAEDEADYYCQSVDITSTWVFGGGTKLTVLG
notes: as for B1

binding result [9]: binds
B6: TBRE1032 (antibody, V domains shown)
VH: EVQLVESGGGLVQPGGSLRLSCAASGFTFSSYDFHWVRQPTGKGLEWVSAIGTAGDTLYLDSVKGRFTISRENAKNSLYLQMNSLRAGDTAVYYCARVNWNSDTFDSWGQGTLVTVSS
VL: VSSELTQDPAVSVALGQTVRITCQGDSLRRYYASWYQQKAGQAPILVIYGENNRPSGIPDRFSGSGSGNTASLTITGAQAEDEADYYCDSRDSSGNLVVFGGGTKLTVL
notes: as for B1
